Data as given in PMC4599659.

Experiments:
[1] = target: P22 coat protein (bacteriophage P22) (UniProt P26747); assay: SEC-MALS; P22-CYP VLPs from co-expression (pETDuet) in E. coli, purified; HPLC-MALS-RI on WTC-100S5 column, 50 mM phosphate pH 7.2, 100 mM NaCl, 200 ppm sodium azide; CYP-SP per capsid by Eq. 1 (capsid mass taken as 19,572 kDa, CYP-SP 71.5 kDa)
[2] = target: P22 coat protein (bacteriophage P22) (UniProt P26747); assay: SEC-MALS; P22-CYP VLPs from differential expression 2 (pBAD + pRSF; 0.125 % L-arabinose, then 0.3 mM IPTG) in E. coli, purified; HPLC-MALS-RI on WTC-100S5 column, 50 mM phosphate pH 7.2, 100 mM NaCl, 200 ppm sodium azide; CYP-SP per capsid by Eq. 1
[3] = target: P22 coat protein (bacteriophage P22) (UniProt P26747); assay: SEC-MALS; P22-CYP VLPs from differential expression 1 (pBAD + pRSF; 0.2 % L-arabinose, then 0.5 mM IPTG) in E. coli, purified; HPLC-MALS-RI on WTC-100S5 column, 50 mM phosphate pH 7.2, 100 mM NaCl, 200 ppm sodium azide; CYP-SP per capsid by Eq. 1

Sequence of UniProt P26747 (P26747 whole entry): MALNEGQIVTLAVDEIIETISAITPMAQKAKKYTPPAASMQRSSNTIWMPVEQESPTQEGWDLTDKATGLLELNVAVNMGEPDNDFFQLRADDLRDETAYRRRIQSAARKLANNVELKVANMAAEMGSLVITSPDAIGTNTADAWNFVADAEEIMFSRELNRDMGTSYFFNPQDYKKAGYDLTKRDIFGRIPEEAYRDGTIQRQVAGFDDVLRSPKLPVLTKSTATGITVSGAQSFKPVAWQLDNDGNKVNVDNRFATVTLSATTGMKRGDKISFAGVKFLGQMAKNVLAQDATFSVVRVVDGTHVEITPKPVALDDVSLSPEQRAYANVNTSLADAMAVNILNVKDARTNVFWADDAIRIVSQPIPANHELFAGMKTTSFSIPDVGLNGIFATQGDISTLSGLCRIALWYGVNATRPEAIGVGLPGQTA

“CYPBM3 "21B3"-scaffold protein fusion (CYP-SP) (from UniProt P26748 141-303)” showed a stoichiometry N [1] of 156 CYP/capsid, a stoichiometry N [2] of 110 CYP/capsid and a stoichiometry N [3] of 130 CYP/capsid.
